Results published in patent US20250032629A1, “NOVEL NUCLEOLIN-BINDING PEPTIDE AND USE THEREOF” (ANYGEN CO., LTD., priority 2020, published 2025).
Ends that are not written are not given here.

Tests used:
Cancer cells = assay: ELISA for the affinities of AGM-330 and its variants on cancer cells; type: cell-based; details: biotin-conjugated PEGylated peptides, 2 hours, read at 450
Protocol: (§1) Then, avidin-HRP was attached through a high-affinity avidin-biotin interaction, and the TMB substrate was converted to blue through HRP enzyme. Then, the reaction was terminated by adding an acid, and the affinities of the 13 peptides were assessed by ELISA by reading the wells at […].
Cancer cells (1×10^4 cells/well) were cultured in 96-well plates for 24 hours. AGM-330 and the 12 PEGylated peptides shown Table 2 were biotin-conjugated, and the cells were treated with increasing concentrations of the 13 peptides for 2 hours.
as §1, with “Thereafter, avidin-HRP” for “Then, avidin-HRP”, “blue color” for “blue”

MCF-10A = assay: Whole-cell binding (cell-growth-on-bead) assay of screened peptide beads; type: cell-based, human
Protocol: (§2) Here, multiple breast and colorectal cancer cells and normal breast and colorectal cells were re-suspended at 10^6 cells/ml and incubated with beads. All experiments were repeated 3 times, and the scale bar is 200 μm. […] Here, nuclei were stained with DAPI (blue), and scale bar is 50 μm. […] Here, a whole-cell binding assay was performed to determine the cell binding of AGM-330, and the scale bar is 200 μm. […] Fmoc=9-fluorenylmethoxycarbonyl, DMF=dimethylformamide. […] Here, bar graphs represent the mean±SD, and statistical analyses were performed by one-way ANOVA with Dunnett's multiple comparison. *, **, and *** indicate P<0.05, P<0.01, and P<0.001, respectively.
(§3) The beads were washed extensively with double-distilled water and phosphate-buffered saline (PBS; Welgene Inc., Korea) before screening. Cancer cells and normal cells were detached from culture dishes with trypsin/EDTA (Gibco), washed with their corresponding culture medium, resuspended at 10^6 cells/ml, and incubated with OBOC beads in Petri dishes in a humidified CO2 incubator at 37° C. with shaking (60 rpm). Beads bound by cells appeared under a microscope as rosettes with a central bead covered by one or more layers of cells. The positive beads were picked by pipette under an inverted microscope, treated with guanidine-HCL (8 M, 20 min) to remove cells and proteins on the bead surface, and subjected to a second round of screening with normal breast epithelial cells to eliminate false positive binding. Only beads with cell binding at both rounds were sent for peptide sequencing.
(§4) To identify a novel cancer-specific peptide ligand, the present inventors synthesized about 2, 600,000 libraries using 5 g of Tentagel MB NH2 resin (200 μm, 520,000 beads/g; FIG. 3).

MDA-MB-231 = assay: as above; type: cell-based, human
Protocol: as §2, §3, §4

MCF-10A and CCD-18Co = assay: Cell-growth-on-bead assay, normal cell lines; type: cell-based, human
Protocol: as §2, §3, §4

NCL = NCL (Homo sapiens, UniProt P19338); assay: siRNA-mediated knockdown of NCL (real-time PCR, Western blot); type: cell-based
Chain of NCL (P19338 whole entry): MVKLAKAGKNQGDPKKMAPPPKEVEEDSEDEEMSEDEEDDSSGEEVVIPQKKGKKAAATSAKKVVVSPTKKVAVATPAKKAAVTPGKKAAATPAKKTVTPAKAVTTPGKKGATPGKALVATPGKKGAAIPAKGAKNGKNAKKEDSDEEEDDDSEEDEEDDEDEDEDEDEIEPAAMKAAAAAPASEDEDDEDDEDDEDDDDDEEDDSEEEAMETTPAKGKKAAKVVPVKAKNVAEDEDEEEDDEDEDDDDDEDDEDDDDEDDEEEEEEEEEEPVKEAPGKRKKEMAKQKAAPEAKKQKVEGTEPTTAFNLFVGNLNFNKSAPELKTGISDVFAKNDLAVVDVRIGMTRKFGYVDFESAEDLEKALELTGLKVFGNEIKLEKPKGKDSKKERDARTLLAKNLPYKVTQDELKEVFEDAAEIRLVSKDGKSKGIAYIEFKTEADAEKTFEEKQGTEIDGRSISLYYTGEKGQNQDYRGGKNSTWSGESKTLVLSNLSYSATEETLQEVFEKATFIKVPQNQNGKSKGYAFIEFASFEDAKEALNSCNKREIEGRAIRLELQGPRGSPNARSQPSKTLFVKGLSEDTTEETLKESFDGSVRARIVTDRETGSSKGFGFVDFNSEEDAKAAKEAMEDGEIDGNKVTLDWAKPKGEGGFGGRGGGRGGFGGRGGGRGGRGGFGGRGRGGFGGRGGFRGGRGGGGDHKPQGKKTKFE

[1] = molecular target: T1, membrane nucleolin (NCL) on cancer cells (human, UniProt P19338 2-710); assay: cell ELISA: biotin-conjugated PEGylated peptide on cancer cells (cell line not given), 2 h, avidin-HRP/TMB, absorbance at 450 nm
T1 construct: whole, on cells; also called membrane NCL; membrane-expressed NCL
T1 sequence (P19338 2-710): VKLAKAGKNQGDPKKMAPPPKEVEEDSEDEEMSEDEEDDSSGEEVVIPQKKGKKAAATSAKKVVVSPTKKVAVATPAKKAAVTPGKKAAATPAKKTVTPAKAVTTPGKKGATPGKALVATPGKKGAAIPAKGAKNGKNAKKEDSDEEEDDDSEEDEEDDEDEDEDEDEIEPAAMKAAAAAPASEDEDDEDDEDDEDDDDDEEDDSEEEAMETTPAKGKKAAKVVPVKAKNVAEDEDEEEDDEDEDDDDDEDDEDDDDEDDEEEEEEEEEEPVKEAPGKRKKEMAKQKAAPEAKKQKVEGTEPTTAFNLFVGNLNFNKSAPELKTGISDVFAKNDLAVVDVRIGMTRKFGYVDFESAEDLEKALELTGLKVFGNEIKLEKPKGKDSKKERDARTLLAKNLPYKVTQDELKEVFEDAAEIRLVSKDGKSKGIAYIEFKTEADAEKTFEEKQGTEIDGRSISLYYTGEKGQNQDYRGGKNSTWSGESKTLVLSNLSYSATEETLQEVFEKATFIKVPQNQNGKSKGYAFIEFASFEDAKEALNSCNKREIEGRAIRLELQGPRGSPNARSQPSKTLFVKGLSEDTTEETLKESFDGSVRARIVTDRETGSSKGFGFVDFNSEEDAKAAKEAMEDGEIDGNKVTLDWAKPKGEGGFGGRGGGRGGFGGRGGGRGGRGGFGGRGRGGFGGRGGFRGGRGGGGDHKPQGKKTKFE
Protocol: as §1, with “Cancer cells (1×10⁴ cells/well) were seeded in 96-well plates and cultured for 24 hours, and then the cells were treated with increasing concentrations of 13 biotin-conjugated peptides for 2 hours. Then, avidin-HRP” for “Then, avidin-HRP”
Cancer cells (1×10⁴ cells/well) were cultured in 96-well plates for 24 hours. AGM-330 and the 12 PEGylated peptides shown Table 2 were biotin-conjugated, and the cells were treated with increasing concentrations of the 13 peptides for 2 hours.
as §1, with “Thereafter, avidin-HRP” for “Then, avidin-HRP”, “blue color” for “blue”

Molecule: RHGALVYLK (not fully specified) [SEQ ID NO: 12, AGM-330 variant, tested PEGylated and biotin-conjugated]
- absorbance (binding affinity) compared with AGM-330 (Cancer cells): higher absorbance than AGM-330

Molecule: RHGAMVFLK (not fully specified) [SEQ ID NO: 15, AGM-330 variant, tested PEGylated and biotin-conjugated]
- absorbance (binding affinity) compared with AGM-330 (Cancer cells): higher absorbance than AGM-330

Molecule: RHGA(Nle)VYLK (RHGAXVYLK; norleucine at position 5; AGM-330; Xaa can be any naturally occurring amino acid) [SEQ ID NO: 13]
- absorbance (binding affinity) compared with AGM-330 (Cancer cells): higher absorbance than AGM-330

Molecule: ADHRHRRSG (AGM-331)
- binding to the human normal breast cell line MCF-10A (MCF-10A): no or only weak binding
- binding to MDA-MB-231 (MDA-MB-231): strong preferential binding
- binding to normal cell lines MCF-10A and CCD-18Co (MCF-10A and CCD-18Co): relatively nonspecific and bound

Molecule: siNCL1: siRNA targeting NCL, sense 5′-GAGCUAACCCUUAUCUGUA(dTdT)-3′ (SEQ ID NO: 21/22) (antisense UACAGAUAAGGGUUAGCUC; dTdT overhangs, further chemistry not given here)
- NCL knockdown efficacy (mRNA) (NCL; MDA-MB-231 cells, among siNCL1, siNCL2, siNCL3): highest knockdown efficacy
- basal expression of NCL in cytosolic and cell membrane fractions (Western blotting) (NCL; siNCL1-treated cells): potently inhibited

Molecule: AVARARRRR (AGM-332)
- binding to the human normal breast cell line MCF-10A (MCF-10A): no or only weak binding
- binding to MDA-MB-231 (MDA-MB-231): strong preferential binding
- binding to normal cell lines MCF-10A and CCD-18Co (MCF-10A and CCD-18Co): relatively nonspecific and bound

Molecule: RHGAMVYLKLKLK (not fully specified) [SEQ ID NO: 20, AGM-330 variant, tested PEGylated and biotin-conjugated]
- absorbance (binding affinity) compared with AGM-330 (Cancer cells): higher absorbance than AGM-330

B1: AGM-330 variant L10K11L12K13 → Insertion (SEQ ID NO: 20) (peptide)
peptide: RHGAMVYLKLKLK
modifications: also: PEGylated, biotin-conjugated (sites not given here)
- binding result [1]: binds

B2: AGM-330 variant M5 → Nle5 (SEQ ID NO: 13) (peptide)
peptide: RHGAXVYLK
modifications: norleucine (Nle) at position 5; PEGylated; biotin-conjugated (sites not given)
notes: also called RHGA(Nle)VYLK
- binding result [1]: binds

B3: AGM-330 variant R1H2R3H4 → Insertion (SEQ ID NO: 18) (peptide)
peptide: RHRHRHGAMVYLK
modifications: also: PEGylated (site not given here), biotin-conjugated (site not given here)
- EC50 (read off the curve) [1]: ~2000 nM

B4: AGM-330 variant R1H2 → Insertion (SEQ ID NO: 17) (peptide)
peptide: RHRHGAMVYLK
modifications: also: PEGylated, biotin-conjugated (sites not given here)
- binding result [1]: binds

B5: AGM-330 variant Reverse sequence (SEQ ID NO: 19) (peptide)
peptide: KLYVMAGHR
modifications: also: PEGylated (site not given here), biotin-conjugated (site not given here)
- binding result [1]: binds

B6: AGM-330 variant A4 → L4 (SEQ ID NO: 11) (peptide)
peptide: RHGLMVYLK
modifications: also: PEGylated, biotin-conjugated (sites not given here)
- EC50 (read off the curve) [1]: ~2000 nM

B7: AGM-330 variant M5 → L5 (SEQ ID NO: 12) (peptide)
peptide: RHGALVYLK
modifications: also: PEGylated, biotin-conjugated (sites not given here)
- EC50 (read off the curve) [1]: ~2000 nM

B8: AGM-330 variant H2 → R2 (SEQ ID NO: 10) (peptide)
peptide: RRGAMVYLK
modifications: also: PEGylated, biotin-conjugated (sites not given here)
- EC50 (read off the curve) [1]: ~2000 nM

B9: AGM-330 variant Y7 → F7 (SEQ ID NO: 15) (peptide)
peptide: RHGAMVFLK
modifications: also: PEGylated (site not given here), biotin-conjugated (site not given here)
- EC50 (read off the curve) [1]: ~2000 nM

B10: AGM-330 variant V6 → A6 (SEQ ID NO: 14) (peptide)
peptide: RHGAMAYLK
modifications: also: PEGylated (site not given here), biotin-conjugated (site not given here)
- EC50 (read off the curve) [1]: ~2000 nM

B11: AGM-330 variant R1 → K1 (SEQ ID NO: 9) (peptide)
peptide: KHGAMVYLK
modifications: also: PEGylated, biotin-conjugated (sites not given here)
- EC50 (read off the curve) [1]: ~2000 nM

B12: Biotinylated AGM-330 (peptide)
peptide: RHGAMVYLK
modifications: also: biotin-conjugated (site not given here)
notes: Bait of the pull-down assays; also called AGM-330-biotin; AGM-330-Biotin
- EC50 (read off the curve) [1]: ~2000 nM

B13: AGM-330 variant R1H2 → Deletion (SEQ ID NO: 16) (peptide)
peptide: GAMVYLK
modifications: also: PEGylated, biotin-conjugated (sites not given here)
notes: also called GAMVYLK
- binding result [1]: binds
